Data on 1 molecule can be found in patent US20170212130A1.

The test has as its target S. cerevisiae Nup84-GFP (S. cerevisiae) (UniProt P52891). As to the kind of experiment: signal to noise ratio of Coomassie bands, Nup84-GFP affinity isolation on LaG-Dynabeads.

B1: LaG-8 (VHH)
VHH: QVQLVESGGGLVQHGGSLRLSCVTSGFTFDIHDMGWFRQAPGKERDIVARISKSGDITYYADSVKGRFIISRDNTKNTVYLQMNSLKPEDTAVYYCAATLRATITSFDEYVYRGQGTQVTVS
Turning to B1, the Nup84-GFP S:N is 0.1.
